{"source": "the DeepSol protein solubility set", "data": [{"experiment": "soluble on expression in E. coli; label from the status in PepcDB or PDB records", "values": [{"sequence": "MIPLEKPGSGGSSPGATSGSGRAGRGLSGPCRPPPPPQARGLLTEIRAVVRTEPFQDGYSLCPGRELGRGKFAVVRKCIKKDSGKEFAAKFMRKRRKGQDCRMEIIHEIAVLELAQDNPWVINLHEVYETASEMILVLEYAAGGEIFDQCVADREEAFKEKDVQRLMRQILEGVHFLHTRDVVHLDLKPQNILLTSESPLGDIKIVDFGLSRILKNSEELREIMGTPEYVAPEILSYDPISMATDMWSIGVLTYVMLTGISPFLGNDKQETFLNISQMNLSYSEEEFDVLSESAVDFIRTLLVKKPEDRATAEECLKHPWLTQSSIQEPSFRMEKALEEANALQEGHSVPEINSDTDKSETEESIVTEELIVVTSYTLGQCRQSEKEKMEQKAISKRFKFEEPLLQEIPGEFIY", "soluble on expression in E. coli": "soluble"}, {"sequence": "MIPRKEMAAVSTEMTMAEMLEVMLKEKYTRWPVTDGDKDSVLGLVNTKHLFSDLLFMTEEERMKMTIHPYVRPVIEVIETIPVHDLLIKMQRERIHMAILSDEYGGTSGLVTTEDILEEIVGEIR", "soluble on expression in E. coli": "not soluble"}, {"sequence": "MIPVERHQQILALIAERGAVSINELTERLGVSHMTVRRDVQKLEQDGLLLSVSGGVRSPERLATEPSHQDKSVMFSQQKAAMGKLAAQHIPLNSCIYLDAGTTTLSLARELAERDDLLIVTNDFAIAAFLIESSQCRMIHTGGTLCRENQSCIGEAVAQALRNLFIDIAFISASSWSLRGLSTPNEDKVVVKRAAVEASRKRVLLCDTSKYGRIATHLATPLDVFDSIITDDGLPVAAKEALSKMGVEVLVAG", "soluble on expression in E. coli": "not soluble"}, {"sequence": "MIQDTRPLIRVVAGILLDSDGNYLLSSRPEGKPYAGYWEFAGGKVEAGETDFQALQREFEEELGIRILAATPWLTKIHSYEHARVCLKFLWVNPDQWTGKPQSREGQEWSWQKAGDFTVAPMLPANGALLRSLSVPRRLYGSLKTGLHGENSMGAYRVLPLGSAEGSGANVLMEAAQWQDRPEHADSVWMVVQTREQWRRAQEKGADAVVWRVCDDVQAQEAAEALRQGVSVPLVLAANGQTVARYGKLWLGLGAHVVVRDETIGKNHE", "soluble on expression in E. coli": "not soluble"}, {"sequence": "MIQIEQIRTGVIQENCYLVYNEEALLIIDPGAEGAKLIQEITRLGKKPAAILLTHTHYDHIGAVEELRHHYQIPVYVSPLEQAWLSNPILNLSGLGRHDDIANIIVQPAEHEFKLTDYEIGGMKFSVVPTPGHSIGSVSFVFDDFVVVGDALFKGSIGRTDLHTGDMQQLLHSITTYLFTLPEEFPVYPGHGDATTIQHEKATNPFFN", "soluble on expression in E. coli": "not soluble"}, {"sequence": "MIQYYYTKKEWGVVMEKEELKILEELRRILSNKNEAIVILNNYFKGGVGKSKLSTMFAYLTDKLNLKVLMIDKDLQATLTKDLAKTFKVELPRVNFYEGLKNGNLASSIVHLTDNLDLIPGTFDLMLLPKLTRSWTFENESRLLATLLAPLKSDYDLIIIDTVPTPSVYTNNAIVASDYVMIPLQAEEESTNNIQNYISYLIDLQEQFNPGLDMIGFVPYLVDTDSATIKSNLEELYKQHKEDNLVFQNIIKRSNKVSTWSKNGITEHKGYDKKVLSMYKNVFFEMLERIIQLENEKE", "soluble on expression in E. coli": "soluble"}, {"sequence": "MIRIGHGFDVHRFGGEGPIIIGGVKIPYEQGLIAHSDGDVALHALSDALLGAIAAGDIGRHFPDTDDKWKGADSRELLKDVYRRVKAQGYVLGNADVTIIAQAPKMAPYIQAMCAAIAEDLETDLGNINVKATTTEKLGFTGRKEGIACEAVVLLRKA", "soluble on expression in E. coli": "not soluble"}, {"sequence": "MIRLQKFKQLTVWVMLGLLTSWIVSCSTDNVGTISKPVTSEVTKIEFWTMQLQPQFTNYFQSLITSFESQNPSIKVKWVDVPWSAMENKILTAVSAKTPPDVVNLNPDFASQLAGRNAWLDLDEKVPSEVSSSYLPNIWQASTLNGKTFGIPWYLTTRLTIYNTDLLKQAGITKPPATYTELAQEAQQIKDKTGKYAFFATFVPQDSGEVLESFVQMGVTLVNAEGKAAFNSPQGKAAFQYWVYLYKKGLLPKESLTQGHRHAIDLYQSGETAFLASGPEFLETISNNAPKISQASAIAPQITGDTGKKNVAVMNIVIPRASKQPDAAVKFALFVTNDENQLAFAKAANVLPSTVTALADSYFKEVPATATIAEKGRIISAQQMQTAEVLTPKMKDFKFLQKAIYENLQAAMLGQKTVDKALEDAAQQWNNR", "soluble on expression in E. coli": "not soluble"}, {"sequence": "MIRMETYPHNFEEKVGFDEIRRLLIGHCHSPMGSDRVIQMHALARHNEVSRLLAETEEMQIILREEDLFPDLRLADVREALNRIRPAGTYLEERELQDVATALRTIEALIRFFHVGEEEEGKDTPYPHLQTLLSEVIVFPDLEKRISSLFDRFGKMKDNASPELMNIRRELSSIEKNISRTLQGILRLAQSEGWVDQGVQPSVRDGRLVIPVAPAHKRKVRGIVHDESGTGKTVFIEPAEIVEANNRIRELEAAERREIIRILIEVCDALRPHIHDLIDCYEWIGLFDFISAKARLCGEWNAIRPILSKKPEIRWEKAVHPLLLRSLRAHGRDVIPLDISLTAPDKRILVISGPNAGGKSVCLKTVGLLQYMLQSGLPIPMSPDSTAGIFGKLFIDIGDEQSIEDDLSTYSSHLRNMKHFARHTDKNTLLLIDEFGGGTEPQIGGAIAEALLHRFNEQEGFGVVTTHYQNLKAYAEETPGLVNGAMLYDRHEMRPLFRLSIGRPGSSFAIEIARKIGLPEEVIAEATDKVGTGYIDMDKYLQDIVRDKRYWETKRTNIRKEEKRLEGAAAEYESRLESIKKERKQILDEARQQASVMLSQSSAQIEKTIRDIKEAQAEREKTRRARQELNDFRETINKEEIEKEERINREIEKIKRRKKRKQEKAASRSAETPVQPKLQEVPQPPVIQVGDTVRIKGQTAIGSIIDMNDREATIALGMIKTTVPIDRLEPAKPVKERKSEPVSGASARMIIDRIHEKRLDFKQDIDLRGMRVNEAVQAVMYFIDDAIQLGIPRVRILHGTGTGALRTVIREYLATVNGVRHFADEHVQFGGAGITVVELG", "soluble on expression in E. coli": "not soluble"}, {"sequence": "MIRRAKPLLGTLIEIAVESVVEASSQSALDEPAIQAAITAAFSRITQIGRLLSFHQQDSELNLLNRQPGQWITLSQDSLRVFKLAKWFGKASDNLFNCTIGGEMMSRGALPCYLGMPLLLQGDWQDIEIRGNQARLARPLIVTFDGIAKGYAVDMAVRELRRAGVSGGWVNAGGDLKVFGSASLDVLCRGSNGLSQKVTVRNMALASSRVSLQLSLGCPALLLPTGNVDMMSFDASNERVVSVQAPFAWRADALTKVAGYLSAEAAKDKIQQLGGQLVC", "soluble on expression in E. coli": "not soluble"}, {"sequence": "MIRRAVVAGQFYPDDAELVEMLKRFFTDLGEEGNSRRITAGVAPHAGYIFSGYTASRTYKAIYEDGLPEVFVILGPNHTGLGSPIAVYPKGEWETPLGRIKVDEKLARRITELSEIADLDDLAHKYEHSIEVQLPFIQYLAELSGKDVKIVPITLGIQDEEVSYALGKAIYEASQELGRDIVVIASTDFMHYGEFYGYVPFRARADELPNLVKEWDMRVIRRILDFDVEGMFEEINAMNHTMCGPGGVGVGIVYSKLAGAIEAELLHYTTSFEVSRSTDAIVGYASIVMRKALEHHHHHH", "soluble on expression in E. coli": "not soluble"}, {"sequence": "MIRTVKPKNARAKRALVKREAKLVENVKQALFIPGQSCNKNLHDIMVDLSALKKPDMKRFNRKNDIHPFEDMSPLEFFSEKNDCSLMVLMTSSKKRKNNMTFIRTFGYKIYDMIELMVADNFKLLSDFKKLTFTVGLKPMFTFQGAAFDTHPVYKQIKSLFLDFFRGESTDLQDVAGLQHVISMTIQGDFQDGEPLPNVLFRVYKLKSYKSDQGGKRLPRIELVEIGPRLDFKIGRIHTPSPDMVTEAHKKPKQLEMKTKKNVELDIMGDKLGRIHMGKQDLGKLQTRKMKGLKSKFDQGTEEGDGEVDEDYEDEASYSDDGQEYEEEFVSATDIEPSAKRQKK", "soluble on expression in E. coli": "not soluble"}, {"sequence": "MISATYRLQLNKNFNFGDVIDNLWYFKDLGVSHLYLSPVLMASPGSNHGYDVIDHSRINDELGGEKEYRRLIETAHTIGLGIIQDIVPNHMAVNSLNWRLMDVLKMGKKSKYYTYFDFFPEDDKIRLPILGEDLDTVISKGLLKIVKDGDEYFLEYFKWKLPLTEVGNDIYDTLQKQNYTLMSWKNPPSYRRFFDVNTLIGVNVEKDHVFQESHSKILDLDVDGYRIDHIDGLYDPEKYINDLRSIIKNKIIIVEKILGFQEELKLNSDGTTGYDFLNYSNLLFNFNQEIMDSIYENFTAEKISISESIKKIKAQIIDELFSYEVKRLASQLGISYDILRDYLSCIDVYRTYANQIVKECDKTNEIEEATKRNPEAYTKLQQYMPAVYAKAYEDTFLFRYNRLISINEVGSDLRYYKISPDQFHVFNQKRRGKITLNATSTHDTKFSEDVRMKISVLSEFPEEWKNKVEEWHSIINPKVSRNDEYRYYQVLVGSFYEGFSNDFKERIKQHMIKSVREAKINTSWRNQNKEYENRVMELVEETFTNKDFIKSFMKFESKIRRIGMIKSLSLVALKIMSAGIPDFYQGTEIWRYLLTDPDNRVPVDFKKLHEILEKSKKFEKNMLESMDDGRIKMYLTYKLLSLRKQLAEDFLKGEYKGLDLEEGLCGFIRFNKILVIIKTKGSVNYKLKLEEGAIYTDVLTGEEIKKEVQINELPRILVRM", "soluble on expression in E. coli": "soluble"}, {"sequence": "MISDRPGLPGEDMRLALLSFENYLLANRNTEKPVLHIALSPAPEDKLTDEQLAELAQNYMQKMGYGDQPYIAYKHGDTHNTHIHIVSVCVDEEGRKINDSFEHRRSMTACRELEIDFGLRNGADMEERNQKAEMKKVDATQGDVRHQIGNTLKAVLESYRFQTFGEYSALLSTLNIEAKQVRGEFKGEPYTGIIYSATDDSGKVVSPPFKSSRFGKRFGNERLEKRMLSHTRDFKDGKWAPTIHAQVVYAMRHARSREELAGLLKKARIDAVFRENEQGRIYGVTFIDHNRREVFNGSRMGKEFSANIYNELFKWWDGIPATERSAHTGTELWQHHSHKAESGSPLEQAASIFSMETNPVDYGEEALARRMKKRRKAKRKSRGI", "soluble on expression in E. coli": "not soluble"}, {"sequence": "MISFNNVSKVYESGGQSVHAVEDVTLSVEKGEIFGIIGFSGAGKSTLLRLVNMLERPTAGTISIDDKDITSLSTKELRKLRQRIGMIFQSFNLFNSRTVFGNIAYPLKLAKVPKNEIKERVNELLKFVGLEDKANNYPEQLSGGQKQRVGIARALATSPDILICDEATSALDPETTTEILNLLKKVNREYNLTILLITHEMHVVKEICHRVAVMEKGKVIEEGKLFDVFTQPKTTTTQNFVRSVINDHLPESVLAKIQNGGQIYRLTFTGEETGQPVLSYIAKNYNVDVNVLYGNIIELQNVLFGNLLVELQGEQREIQKALQHLRLQVQLKEVEAHAS", "soluble on expression in E. coli": "not soluble"}, {"sequence": "MISLPSGTRIWLVAGVTDMRKSFNGLGEQVQHVLDETPFSGHLFIFRGRRGDTVKILWADADGLCLFTKRLEEGQFIWPAVRDGKVSITRSQLAMLLDKLDWRQPKTFRLNSLTML", "soluble on expression in E. coli": "not soluble"}, {"sequence": "MISSKLKLQSLTSKDLSAILELDQACFGGLWTMEGYQRELDSPNSDLLGLFSPSSPIKLLGMGCFWSIVGEAHITILAVHPQYHHQGLGQALLYFLLRTASDRGLERATLEVRASNEAAISLYQKFGFQTAGRRRAYYQDNGEDALILWLPDLQYPQFQETLAHWKTIIQDGLQKYSWSIVNSR", "soluble on expression in E. coli": "soluble"}, {"sequence": "MISSWEQKNNCVMPEDVRNFYLMTNGFHMTWSVKLDDHIIPLGSMVINGISKLTQLIQSSVYSLPNAPTLADLEDDSQEGNEDHQLEKPHFDCRSAIFELDSCGGNGKVCLVYKNGKPGLAHDTEIWFLDRALYWHFLTDTFTAYYRLLITHLGLPQWQYAFTSYGISPQAKQWFSMYKPITYNTSLLTEEPDTFVNKLDPSKVFKSKNKILIPKKKGPVQPVSGQKGPGPLAPPTSKPSAGCGNPVRK", "soluble on expression in E. coli": "not soluble"}, {"sequence": "MITQEMKDLINNQLAMVATVDAKGQPNIGPKRSMRLWDDKTFIYNENTDGQTRINIEDNGKIEIAFVDRERLLGYRFVGTAEIQTEGAYYEAAKKWAQGRMGVPKAVGIIHVERIFNLQSGANAGKEINSESN", "soluble on expression in E. coli": "not soluble"}]}]}
